Measurements reported in ChEMBL document CHEMBL1143427, “Interactions of ceftobiprole with beta-lactamases from molecular classes A to D” (Antimicrob Agents Chemother, 2007).

Legend:
[1] = substrate: CO/N=C(\C(=O)N[C@@H]1C(=O)N2C(C(=O)O)=C(COC(C)=O)CS[C@H]12)c1csc(N)n1; conditions: Escherichia coli
[2] = substrate: Nc1nc(/C(=N/O)C(=O)N[C@@H]2C(=O)N3C(C(=O)O)=C(/C=C4\CCN([C@@H]5CCNC5)C4=O)CS[C@H]23)ns1; conditions: Escherichia coli
[3] = substrate: CC1(C)S[C@@H]2[C@H](NC(=O)Cc3ccccc3)C(=O)N2[C@H]1C(=O)O; conditions: Escherichia coli
[4] = substrate: CC(C)(O/N=C(\C(=O)N[C@@H]1C(=O)N2C(C(=O)[O-])=C(C[n+]3ccccc3)CS[C@H]12)c1csc(N)n1)C(=O)O; conditions: Escherichia coli
[5] = substrate: O=C(Cc1cccs1)N[C@@H]1C(=O)N2C(C(=O)[O-])=C(C[n+]3ccccc3)CS[C@H]12; conditions: Escherichia coli
[6] = substrate: CO/N=C(\C(=O)N[C@@H]1C(=O)N2C(C(=O)[O-])=C(C[N+]3(C)CCCC3)CS[C@H]12)c1csc(N)n1; conditions: Escherichia coli
[7] = substrate: CO/N=C(\C(=O)N[C@@H]1C(=O)N2C(C(=O)O)=C(COC(C)=O)CS[C@H]12)c1csc(N)n1; experiment: (§1) Activity of Escherichia coli CTX-M-15 assessed as drug hydrolysis by spectrophotometry
[8] = substrate: Nc1nc(/C(=N/O)C(=O)N[C@@H]2C(=O)N3C(C(=O)O)=C(/C=C4\CCN([C@@H]5CCNC5)C4=O)CS[C@H]23)ns1; experiment: as §1
[9] = substrate: CC1(C)S[C@@H]2[C@H](NC(=O)Cc3ccccc3)C(=O)N2[C@H]1C(=O)O; experiment: as §1
[10] = substrate: CC(C)(O/N=C(\C(=O)N[C@@H]1C(=O)N2C(C(=O)[O-])=C(C[n+]3ccccc3)CS[C@H]12)c1csc(N)n1)C(=O)O; experiment: as §1
[11] = substrate: O=C(Cc1cccs1)N[C@@H]1C(=O)N2C(C(=O)[O-])=C(C[n+]3ccccc3)CS[C@H]12; experiment: as §1
[12] = substrate: CO/N=C(\C(=O)N[C@@H]1C(=O)N2C(C(=O)[O-])=C(C[N+]3(C)CCCC3)CS[C@H]12)c1csc(N)n1; experiment: as §1
[13] = substrate: Nc1nc(/C(=N/O)C(=O)N[C@@H]2C(=O)N3C(C(=O)O)=C(/C=C4\CCN([C@@H]5CCNC5)C4=O)CS[C@H]23)ns1; conditions: Escherichia coli; remark: listed apart in the source
[14] = substrate: CC1(C)S[C@@H]2[C@H](NC(=O)Cc3ccccc3)C(=O)N2[C@H]1C(=O)O; conditions: Escherichia coli; remark: listed apart in the source
[15] = substrate: CC(C)(O/N=C(\C(=O)N[C@@H]1C(=O)N2C(C(=O)[O-])=C(C[n+]3ccccc3)CS[C@H]12)c1csc(N)n1)C(=O)O; conditions: Escherichia coli; remark: listed apart in the source
[16] = substrate: O=C(Cc1cccs1)N[C@@H]1C(=O)N2C(C(=O)[O-])=C(C[n+]3ccccc3)CS[C@H]12; conditions: Escherichia coli; remark: listed apart in the source
[17] = substrate: CO/N=C(\C(=O)N[C@@H]1C(=O)N2C(C(=O)[O-])=C(C[N+]3(C)CCCC3)CS[C@H]12)c1csc(N)n1; conditions: Escherichia coli; remark: listed apart in the source
[18] = substrate: Nc1nc(/C(=N/O)C(=O)N[C@@H]2C(=O)N3C(C(=O)O)=C(/C=C4\CCN([C@@H]5CCNC5)C4=O)CS[C@H]23)ns1; conditions: Escherichia coli; remark: listed apart in the source
[19] = substrate: CC1(C)S[C@@H]2[C@H](NC(=O)Cc3ccccc3)C(=O)N2[C@H]1C(=O)O; conditions: Escherichia coli; remark: listed apart in the source
[20] = substrate: CC(C)(O/N=C(\C(=O)N[C@@H]1C(=O)N2C(C(=O)[O-])=C(C[n+]3ccccc3)CS[C@H]12)c1csc(N)n1)C(=O)O; conditions: Escherichia coli; remark: listed apart in the source
[21] = substrate: O=C(Cc1cccs1)N[C@@H]1C(=O)N2C(C(=O)[O-])=C(C[n+]3ccccc3)CS[C@H]12; conditions: Escherichia coli; remark: listed apart in the source
[22] = substrate: CO/N=C(\C(=O)N[C@@H]1C(=O)N2C(C(=O)[O-])=C(C[N+]3(C)CCCC3)CS[C@H]12)c1csc(N)n1; conditions: Escherichia coli; remark: listed apart in the source
[23] = substrate: Nc1nc(/C(=N/O)C(=O)N[C@@H]2C(=O)N3C(C(=O)O)=C(/C=C4\CCN([C@@H]5CCNC5)C4=O)CS[C@H]23)ns1; experiment: (§2) Activity of Serratia marcescens SME3 assessed as drug hydrolysis by spectrophotometry
[24] = substrate: CC1(C)S[C@@H]2[C@H](NC(=O)Cc3ccccc3)C(=O)N2[C@H]1C(=O)O; experiment: as §2
[25] = substrate: CC(C)(O/N=C(\C(=O)N[C@@H]1C(=O)N2C(C(=O)[O-])=C(C[n+]3ccccc3)CS[C@H]12)c1csc(N)n1)C(=O)O; experiment: as §2
[26] = substrate: O=C(Cc1cccs1)N[C@@H]1C(=O)N2C(C(=O)[O-])=C(C[n+]3ccccc3)CS[C@H]12; experiment: as §2
[27] = substrate: CO/N=C(\C(=O)N[C@@H]1C(=O)N2C(C(=O)[O-])=C(C[N+]3(C)CCCC3)CS[C@H]12)c1csc(N)n1; experiment: as §2
[28] = substrate: Nc1nc(/C(=N/O)C(=O)N[C@@H]2C(=O)N3C(C(=O)O)=C(/C=C4\CCN([C@@H]5CCNC5)C4=O)CS[C@H]23)ns1; experiment: (§3) Ratio of Kcat to Km of Serratia marcescens SME3 assessed as drug hydrolysis by spectrophotometry
[29] = substrate: CC1(C)S[C@@H]2[C@H](NC(=O)Cc3ccccc3)C(=O)N2[C@H]1C(=O)O; experiment: as §3
[30] = substrate: CC(C)(O/N=C(\C(=O)N[C@@H]1C(=O)N2C(C(=O)[O-])=C(C[n+]3ccccc3)CS[C@H]12)c1csc(N)n1)C(=O)O; experiment: as §3
[31] = substrate: O=C(Cc1cccs1)N[C@@H]1C(=O)N2C(C(=O)[O-])=C(C[n+]3ccccc3)CS[C@H]12; experiment: as §3
[32] = substrate: CO/N=C(\C(=O)N[C@@H]1C(=O)N2C(C(=O)[O-])=C(C[N+]3(C)CCCC3)CS[C@H]12)c1csc(N)n1; experiment: as §3

B1: Beta-lactamase CTX-M (Escherichia coli), Q9EXV5 (protein)
chain: MVKKSLRQFTLMATATVTLLLGSVPLYAQTADVQQKLAELERQSGGRLGVALINTADNSQILYRADERFAMCSTSKVMAAAAVLKKSESEPNLLNQRVEIKKSDLVNYNPIAEKHVNGTMSLAELSAAALQYSDNVAMNKLIAHVGGPASVTAFARQLGDETFRLDRTEPTLNTAIPGDPRDTTSPRAMAQTLRNLTLGKALGDSQRAQLVTWMKGNTTGAASIQAGLPASWVVGDKTGSGGYGTTNDIAVIWPKDRAPLILVTYFTQPQPKAESRRDVLASAAKIVTDGL
kcat/Km [1]: 6.9e+06 M⁻¹ s⁻¹ | kcat/Km [2]: 1.4e+07 M⁻¹ s⁻¹ | kcat/Km [3]: 5.4e+06 M⁻¹ s⁻¹ | kcat/Km [4]: 18000 M⁻¹ s⁻¹ | kcat/Km [5]: 4.9e+06 M⁻¹ s⁻¹ | kcat/Km [6]: 250000 M⁻¹ s⁻¹ | Km [7]: 26 µM | kcat [7]: 180 s⁻¹ | Km [8]: 19 µM | kcat [8]: 270 s⁻¹ | Km [9]: 8.7 µM | kcat [9]: 47 s⁻¹ | Km [10]: 240 µM | kcat [10]: 4.4 s⁻¹ | Km [11]: 39 µM | kcat [11]: 190 s⁻¹ | Km [12]: 180 µM | kcat [12]: 45 s⁻¹

B2: Class A carbapenemase KPC-2 (Escherichia coli), A8DS27 (protein)
chain: MSLYRRLVLLSCLSWPLAGFSATALTNLVAEPFAKLEQDFGGSIGVYAMDTGSGATVSYRAEERFPLCSSFKGFLAAAVLARSQQQAGLLDTPIRYGKNALVPWSPISEKYLTTGMTVAELSAAAVQYSDNAAANLLLKELGGPAGLTAFMRSIGDTTFRLDRWELELNSAIPGDARDTSSPRAVTESLQKLTLGSALAAPQRQQFVDWLKGNTTGNHRIRAAVPADWAVGDKTGTCGVYGTANDYAVVWPTGRAPIVLAVYTRAPNKDDKHSEAVIAAAARLALEGLGVNGQ
Km [13]: 340 µM | kcat [13]: 110 s⁻¹ | Km [14]: 30 µM | kcat [14]: 60 s⁻¹ | Km [15]: 230 µM | kcat [15]: 0.38 s⁻¹ | Km [16]: 510 µM | kcat [16]: 390 s⁻¹ | Km [17]: 540 µM | kcat [17]: 12 s⁻¹ | kcat/Km [18]: 320000 M⁻¹ s⁻¹ | kcat/Km [19]: 2e+06 M⁻¹ s⁻¹ | kcat/Km [20]: 1700 M⁻¹ s⁻¹ | kcat/Km [21]: 770000 M⁻¹ s⁻¹ | kcat/Km [22]: 22000 M⁻¹ s⁻¹

B3: Carbapenem-hydrolyzing beta-lactamase SME-3 (Serratia marcescens), Q6PRG8 (protein)
chain: MSNKVNFKTASFLFSVCLALSAFNAHANKSDAAAKQIKKLEEDFDGRIGVFAIDTGSGNTFGYRSDERFPLCSSFKGFLAAAVLERVQQKKLDINQKVKYESRDLEYYSPITTKYKGSGMTLGDMASAALQYSDNGATNIIMERFLGGPEGMTKFMRSIGDNEFRLDRWELELNTAIPGDKRDTSTPKAVANSLNKLALGNVLNAKVKAIYQNWLKGNTTGDARIRASVPADWVVGDKTGSCGAYGTANDYAVIWPKNRAPLIVSIYTTRKSKDDKHSDKTIAEASRIAIQAID
Km [23]: 270 µM | kcat [23]: 5.9 s⁻¹ | Km [24]: 2.2 µM | kcat [24]: 8.8 s⁻¹ | Km [25]: 170 µM | kcat [25]: 0.16 s⁻¹ | Km [26]: 400 µM | kcat [26]: 1200 s⁻¹ | Km [27]: 280 µM | kcat [27]: 1.5 s⁻¹ | kcat/Km [28]: 22000 M⁻¹ s⁻¹ | kcat/Km [29]: 4e+06 M⁻¹ s⁻¹ | kcat/Km [30]: 940 M⁻¹ s⁻¹ | kcat/Km [31]: 3e+06 M⁻¹ s⁻¹ | kcat/Km [32]: 5400 M⁻¹ s⁻¹
